Positions count from the first letter of the chain named. Where two headings read alike, the source gives them in different places.
B1: IgG1 XBR2-433 (antibody, V domains shown)
VH: QSVKESEGGLFKPTDTLTLTCTVSGFSLSTYGVSWVRQAPGNGLEWIGAIGSSGSANYASWAKDRSTITRNTNLNTVTLKMTSLTAADTATYFCARDGYYSSGWGPYFNIWGPGTLVTISS
VL: SFVLTQPASVQVNLGQTVSLTCTADTLSRSYASWYQQKPGQAPVLLIYRDTSRPSGVPDRFSGSSSGNTATLTISGAQAGDEADYYCATSGGSGSNPQYVFGGGTQLTVTG
B2: ERR2-Top35 (mAb130) (antibody, V domains shown)
VH: B1 VH with T14M, S29N, I50V, S55A, A56T, D64S, L74E, N109S, I119V
VL: SFVLTQPASVQVNLGQTVSLTCTAETLRSSYASWYQQKPGQAPVLLIYRDTSRPSGVPDRFSGSSSGNTATLTISGAQAGDEADYYCATSDGSGSRYYVFGGGTQLTVTG
B3: IgG1 XBR2-416 (antibody, V domains shown)
VH: QEQLEESGGRLVTPGTPLTLTCTVSGFSLSSYWMSWVRQAPGKGLEWIGTITPGGNTDYATWAKARFTVSKTSTTVDLKITSPTTEDTATYFCARGIGGAADLWGPGTLVTISS
VL: AQVLTQTPSSTSAAVGGTVTIKCQASQSISSSDLSWYQQKPGQPPKLLIYATSYLASGVPSRFKGSGSGTEYTLTISGVQREDAATYYCLGGYPNTSYRSAFGGGTKVEIK
notes: also called chimeric rabbit/human IgG1 XBR2-416
B4: ERR2-316 (mAb005) (antibody, human IgG1, V domains shown)
VH: QKQLVESGGRLVTPGGSLTLTCTVSGFSLSKYGVSWVRQAPGSGLEYIGTIGGSGTSYYASWAKSRSTITRNTNLNTVTLKMTSLTAADTATYFCARYFGWNTGFDIWGPGTLVTISS
VL: DPVMTQTPSSVSEPVGGTVTIKCQASQSISNALAWYQQKPGQPPKRLIYKASTPASGVPSRFKGSRSGTEYTLTISGVQREDAATYYCLGFSVVSNDGWAFGAGTNVEIK
notes: Full-length chimeric rabbit/human IgG1, human IgH-gamma1 and IgL-kappa constant regions; C-terminal tags HC: LPETG-Strep, LC: G5SLPETG-Strep; also called mAb0005
B5: ERR2-308 (mAb037) (antibody, human IgG1, V domains shown)
VH: QEQLEESGGRLVTPGTPLTLTCAVSGFSLSNYAMGWVRQAPGEGLEYIGWISAGGGAYYASWVNGRFTISKTSSTVDLKMTSLTAADTATYFCARGASNGCDLWGPGTLVTVSS
VL: DPMLTQTPSSVSAVVGGTVTIKCQASQSITSWLSWYQQKPGQPPKLLIYGASHLASGVPSRFKGSGYGTEFTLTISGIQREDAATYYCLGGYSNSDIVFGGGTELEIL
notes: Full-length chimeric rabbit/human IgG1, human IgH-gamma1 and IgL-kappa constant regions; C-terminal tags HC: LPETG-Strep, LC: G5SLPETG-Strep
B6: XBR2-TOP72 (IgG) (antibody, V domains shown)
VH: QEQLEESGGRLVTPGTPLTLTCTVSGIDLSSNAMSWVRQAPGKGLEYVGFINGGGGVHYASWARGRFTISKTSTTVDLKITSPTTEDTATYFCARAGTTYYTSFNLWGPGTLVTISS
VL: QFVLTQSPSASAALGSSAKLTCTLSSAHKTYTIAWYQQQQGEAPRLLMMLRTDGSYTKGTGVPDRFSGSSSGADRYLIISSVQADDAAGYYCGADYSGGYVFGGGTQLTVTG
notes: also called chimeric rabbit/human IgG1 XBR2-TOP72
B7: ERR2-317 (mAb006) (antibody, human IgG1, V domains shown)
VH: QSLEESGGRLVTPGTPLTLTCTASGFSLSSYDMIWVRQAPGKGLEYIGIINAGGNTYYASWAKGRFTISRTSTTVDLKMTSPTTEDTATYFCARGSSWTGDIWGPGTLVTVSS
VL: DPVLTQTPSSTSAAVGGTVTIKCQASQSISSYLSWYQQKPGQPPKQLIYAASTLASGVPSRFKGSGSGTEYTLTISGVQREDAATYYCLGGYASASYQTAFGGGTKVEIK
notes: as for B5
B8: ERR2-302 (mAb004) (antibody, human IgG1, V domains shown)
VH: QKQLVESGGGLVKPGGSLTLTCTVSGFSLSSYAIGWVRQAPGNGLEWIGIINSYGSTYYASWAKSRSTITRNTNLNTVTLKMTSLTAADTATYFCARSPYGYVSAWGYHRLDLWGQGTLVTISS
VL: SYELTQLPSVSVSLGQTARITCGGASIGSKVVHWYQQKPGLAPGLLIYDDDERPSGVPDRFSGSNSGDTATLTISGAQAGDEAEYYCQLWDGSDVVFGGGTQLTVTG
notes: Full-length chimeric rabbit/human IgG1, human IgH-gamma1 and IgL-lambda constant regions; C-terminal tags HC: LPETG-Strep, LC: G5SLPETG-Strep
B9: chimeric rabbit/human Fab XBR2-TOP9 (Fab, V domains shown)
VH: QSVEESRGRLVTPGTPLTLICTVSGIDLSSYNIQWVRQAPGKGLEYIGYINTDGSAYYASWAKGRFTISKTSTTVDLKITSPTTEDTATYFCARGGYASGFNLWGPGTLVTISS
VL: DVVMTQTPSSTSAAVGGTVTIKCQASQNIGPWLSWYQQKPGQPPKQLIYAASTLASGVPSRFKGSGSGTDYTLTISGVQREDAATYYCLGWHSWSDDGWAFGAGTNVEIK

Legend:
Ig [1] = target: T1, Ig; assay: flow cytometry, HEK 293F cells displaying the construct, IgG1 1 µg/mL, APC (binding) against PE (expression); on Vec cells Q2 6.53 and 73.5 in the PE- APC+ quadrant
T1 construct: transmembrane segment; also called HA-Ig

Ig+Fr [2] = target: T2, Ig+Fr (human); assay: as above
T2 construct: two-domain fragment;transmembrane segment; also called HA-Ig+Fr

[3] = target: T3, hROR2-T245 extracellular domain displayed on HEK 293F cells (human, UniProt Q01974 55-394; P09619 513-561); assay: as above
T3 construct: range 55-394;range 513-561; also called complete ECD

[4] = target: T4, anti-human Fc (Jackson ImmunoResearch, 109-006-008); assay: ELISA, IgG titrated on coated anti-human Fc; fit printed as IC50
T4 construct: Coated on a control plate to capture the chimeric IgG1 antibodies through their human Fc; also called IgG

[5] = target: T4, anti-human Fc (Jackson ImmunoResearch, …); assay: as above; remark: listed apart in the source
[6] = target: T5, recombinant human twin strep-tagged ROR2 extracellular domain (human, UniProt Q01974 34-403); assay: ELISA, IgG titrated on coated twin-strep human ROR2 ECD; fit printed as IC50
T5 construct: extracellular domain; Made in HEK293T, Streptactin purified; also called Human ROR2-TwinStrep; human ROR2

[7] = target: T6, recombinant murine twin strep-tagged ROR2 extracellular domain (mouse, UniProt Q9Z138 34-403); assay: ELISA, IgG titrated on coated twin-strep mouse ROR2 ECD; fit printed as IC50
T6 construct: extracellular domain; Made in HEK293T, Streptactin purified; also called mouse ROR2; murine ROR2
T6 sequence (Q9Z138 other isoform, or with tags, fused parts or gaps): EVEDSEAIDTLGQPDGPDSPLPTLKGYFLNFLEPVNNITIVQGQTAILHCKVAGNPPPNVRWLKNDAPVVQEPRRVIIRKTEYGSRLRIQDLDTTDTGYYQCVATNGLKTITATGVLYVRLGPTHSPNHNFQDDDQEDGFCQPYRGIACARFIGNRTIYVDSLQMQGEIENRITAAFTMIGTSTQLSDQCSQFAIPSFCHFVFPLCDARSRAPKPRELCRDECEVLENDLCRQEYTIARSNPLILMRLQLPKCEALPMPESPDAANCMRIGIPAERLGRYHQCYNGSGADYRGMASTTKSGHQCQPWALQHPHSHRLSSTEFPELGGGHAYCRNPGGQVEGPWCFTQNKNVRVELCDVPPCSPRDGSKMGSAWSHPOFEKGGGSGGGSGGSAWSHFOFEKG

[8] = target: T5, recombinant human twin strep-tagged …; assay: ELISA, IgG titrated on coated twin-strep human ROR2 ECD; fit printed as IC50; remark: listed apart in the source
[9] = target: T7, recombinant cynomolgus twin strep-tagged ROR2 extracellular domain (cynomolgus monkey, UniProt A0A7N9D5U8 34-403); assay: ELISA, IgG titrated on coated twin-strep cynomolgus ROR2 ECD; fit printed as IC50
T7 construct: extracellular domain; Made in HEK293T, Streptactin purified; also called cynomolgus ROR2; cynomolgus ROR2-TwinStrep

Ig [10] = target: T1, Ig; assay: flow cytometry, HEK 293F cells displaying the construct, IgG1 1 µg/mL, APC (binding) against PE (expression); on Vec cells Q2 1.86
Fr = target: T8, Fr (human); assay: as above
T8 construct: isolated domain;transmembrane segment; also called HA-Fr

Ki = target: T9, Ki (human); assay: as above
T9 construct: isolated domain;transmembrane segment; also called HA-Ki

Ig+Fr [11] = target: T2, Ig+Fr; assay: as above
Fr+Ki = Fr+Ki (human); assay: as above
Sequence of Fr+Ki (human) (chain, as listed by the source): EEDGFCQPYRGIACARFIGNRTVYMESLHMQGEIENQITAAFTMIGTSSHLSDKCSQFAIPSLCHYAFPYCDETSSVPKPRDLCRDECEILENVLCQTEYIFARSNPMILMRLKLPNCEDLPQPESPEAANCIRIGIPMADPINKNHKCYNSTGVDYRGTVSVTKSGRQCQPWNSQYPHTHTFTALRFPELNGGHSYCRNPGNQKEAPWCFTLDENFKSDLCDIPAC

[12] = target: T3, hROR2-T245 extracellular domain …; assay: as above
[13] = target: T6, recombinant murine twin strep-tagged …; assay: ELISA on coated twin-strep mouse ROR2 ECD (FIG. 14B); patent's own reading of the ELISA curves on coated mouse ROR2 (FIG. 14, panel B)
[14] = target: T5, recombinant human twin strep-tagged …; assay: SPR, Biacore T200, IgG captured by anti-human Fcγ, ROR2-TwinStrep as analyte, 1:1 Langmuir
[15] = target: T7, recombinant cynomolgus twin …; assay: as above
[16] = target: T10, full-length human ROR2 on cells (human, UniProt Q01974 34-943); assay: flow cytometry, T47D cells (endogenous hROR2), IgG 100 ng/100 µL, anti-human Fc APC
T10 construct: whole, on cells; the cells are named under assay; In the Western blot it is denatured; also called hROR2; cell surface human ROR2

BSA = target: T11, BSA (bovine, UniProt P02769); assay: ELISA, coated antigen 100 ng/well, anti-His HRP, absorbance 405 nm
T11 construct: also called bovine serum albumin
T11 sequence (P02769 25-607 limits assumed): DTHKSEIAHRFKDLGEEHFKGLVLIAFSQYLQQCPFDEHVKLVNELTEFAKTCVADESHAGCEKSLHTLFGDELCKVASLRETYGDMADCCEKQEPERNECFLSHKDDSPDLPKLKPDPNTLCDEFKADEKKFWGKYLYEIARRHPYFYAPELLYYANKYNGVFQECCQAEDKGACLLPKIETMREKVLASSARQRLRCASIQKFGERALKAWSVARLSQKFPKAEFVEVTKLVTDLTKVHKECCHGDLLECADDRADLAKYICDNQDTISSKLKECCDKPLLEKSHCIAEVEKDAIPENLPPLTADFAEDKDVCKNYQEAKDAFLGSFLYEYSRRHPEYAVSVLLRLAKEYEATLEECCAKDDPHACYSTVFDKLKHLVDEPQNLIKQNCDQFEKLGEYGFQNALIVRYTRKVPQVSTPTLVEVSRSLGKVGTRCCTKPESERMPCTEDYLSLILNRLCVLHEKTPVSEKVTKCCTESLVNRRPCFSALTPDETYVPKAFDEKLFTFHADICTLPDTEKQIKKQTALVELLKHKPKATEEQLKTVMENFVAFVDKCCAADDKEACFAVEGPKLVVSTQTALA

hFc-hROR1 = target: T12, hFc-hROR1 (human, UniProt Q01973 30-403, limits assumed); assay: as above
T12 construct: also called ROR1 (ELISA control); not shown: human Fc (hFc) of pCEP4-hFc-hROR1 (Yang et al., 2011)
T12 sequence (Q01973 30-403 limits assumed): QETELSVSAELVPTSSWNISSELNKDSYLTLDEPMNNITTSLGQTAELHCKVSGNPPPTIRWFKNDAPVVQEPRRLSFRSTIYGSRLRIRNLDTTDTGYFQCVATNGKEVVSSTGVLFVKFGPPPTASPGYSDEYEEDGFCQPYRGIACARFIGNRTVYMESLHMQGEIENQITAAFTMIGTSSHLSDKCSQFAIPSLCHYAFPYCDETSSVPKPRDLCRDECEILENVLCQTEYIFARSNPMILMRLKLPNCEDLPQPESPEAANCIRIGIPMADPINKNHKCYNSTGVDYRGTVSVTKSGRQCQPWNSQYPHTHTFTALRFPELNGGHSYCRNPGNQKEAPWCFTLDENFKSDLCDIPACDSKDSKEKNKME

[17] = target: T10, full-length human ROR2 on cells; assay: flow cytometry, 63-12 cells expressing hROR2, Fab 1 µg/100 µL, anti-His Alexa Fluor 488

Binder	IC50 [4] [mg/L]	IC50 [5] [mg/L]	IC50 [6] [mg/L]	IC50 [8] [mg/L]	IC50 [9] [mg/L]	binding result [13]	also measured
B1							cells in quadrant Q2 (PE+ APC+) (Ig [1]): 67%; cells in quadrant Q2 (PE+ APC+) (Ig+Fr [2]): 50.7%; cells in quadrant Q2 (PE+ APC+) [3]: 90.6%
B2	0.0419	0.0143	0.0244	0.0462	0.0531		IC50 [7]: 0.0173 mg/L
B3							cells in quadrant Q2 (PE+ APC+) (Ig [10]): 3.22%; cells in quadrant Q2 (PE+ APC+) (Fr): 4.05%; cells in quadrant Q2 (PE+ APC+) (Ki): 90.2%; cells in quadrant Q2 (PE+ APC+) (Ig+Fr [11]): 3.9%; cells in quadrant Q2 (PE+ APC+) (Fr+Ki): 69.7%; cells in quadrant Q2 (PE+ APC+) [12]: 55.9%
B4	0.04	0.0112	0.0299	0.0407	0.044	no binding (tested: 0.5 µg/mL highest concentration)	
B5	0.0336	0.0167	0.467	0.0186	0.0046	no binding (tested: 0.5 µg/mL highest concentration)	Kd [14]: 0.0112 µM; koff [14]: 0.000153 s⁻¹; kon [14]: 13700 M⁻¹ s⁻¹; Kd [15]: 0.0054 µM; koff [15]: 0.000127 s⁻¹; kon [15]: 23800 M⁻¹ s⁻¹
B6							binding result [16]: binds
B7	0.0391	0.0084	1.35	0.0168	0.019	no binding (tested: 0.5 µg/mL highest concentration)	
B8	0.0322	0.0134	0.102	0.0055	0.0071		IC50 [7]: 0.0606 mg/L; Kd [14]: 0.0524 µM; koff [14]: 0.0056 s⁻¹; kon [14]: 107000 M⁻¹ s⁻¹; Kd [15]: 0.0486 µM; koff [15]: 0.00527 s⁻¹; kon [15]: 108000 M⁻¹ s⁻¹
B9							binding result (BSA): no binding (tested: 100 ng/50 µL); binding result (hFc-hROR1): no binding (tested: 100 ng/50 µL); binding result [17]: binds

Reference: patent publication US20190031754A1 (Scripps Research, published 2019)
